From patent US20140363428A1 (Chugai, published 2014)
Changes are numbered by the printed parent chain. Names may count otherwise. Blank lines part the entries; values can stand above or below the binder they belong to.

Columns and labels:
[1] = molecular target: T1, soluble human FcRn (heterodimer of FcRn alpha chain and beta2-microglobulin) (human, UniProt P55899 24-297; P61769 21-119); test: SPR (Biacore), hFcRn, measured in multiplicates; n=12
T1 construct: Signal regions are part of the expressed constructs; also called hFcRn

soluble human FcRn [2] = molecular target: T2, soluble human FcRn (human, UniProt P55899 24-297; P61769 21-119); test: SPR (Biacore), pH 6.0
T2 construct: Heterodimer of alpha chain and beta2-microglobulin; also called hFcRn

soluble human FcRn [3] = molecular target: T2, soluble human FcRn; test: SPR (Biacore), pH 7.0
soluble human FcRn [4] = molecular target: T2, soluble human FcRn; test: SPR (Biacore), pH 7.0; remark: listed apart in the source
soluble human FcRn [5] = molecular target: T2, soluble human FcRn; test: SPR (Biacore), pH 7.0; remark: listed apart in the source

Kd (soluble human FcRn [2]): 400 nM
B2: Fv-4-F1172 (antibody)
heavy: QVQLQESGPGLVKPSETLSLTCAVSGHSISHDHAWSWVRQPPGEGLEWIGFISYSGITNYNPSLQGRVTISRDNSKNTLYLQMNSLRAEDTAVYYCARSLARTTAMDYWGEGTLVTVSSASTKGPSVFPLAPSSKSTSGGTAALGCLVKDYFPEPVTVSWNSGALTSGVHTFPAVLQSSGLYSLSSVVTVPSSSLGTQTYICNVNHKPSNTKVDKKVEPKSCDKTHTCPPCPAPELLGGPSVFLFPPKPKDTLMISRTPEVTCVVVDVSHEDPEVKFNWYVDGVEVHNAKTKPREEQYNSTYRVVSVLTVLHQDWLNGKEYKCKVSNKALPAPIEKTISKAKGQPREPQVYTLPPSRDELTKNQVSLTCLVKGFYPSDIAVEWESNGQPENNYKTTPPVLDSDGSFFLYSKLTVDKSRWQQGNVFSCSVMHEALHHHYTRKELSLSP
light: DIQMTQSPSSLSASVGDSVTITCQASTDISSHLNWYQQKPGKAPELLIYYGSHLLSGVPSRFSGSGSGTDFTFTISSLEAEDAATYYCGQGNRLPYTFGQGTKVEIERTVAAPSVFIFPPSDEQLKSGTASVVCLLNNFYPREAKVQWKVDNALQSGNSQESVTEQDSKDSTYSLSSTLTLSKADYEKHKVYACEVTHQGLSSPVTKSFNRGEC

Kd (soluble human FcRn [2]): 430 nM
B4: Fv-4-N434H (antibody, human IgG1, kappa)
heavy: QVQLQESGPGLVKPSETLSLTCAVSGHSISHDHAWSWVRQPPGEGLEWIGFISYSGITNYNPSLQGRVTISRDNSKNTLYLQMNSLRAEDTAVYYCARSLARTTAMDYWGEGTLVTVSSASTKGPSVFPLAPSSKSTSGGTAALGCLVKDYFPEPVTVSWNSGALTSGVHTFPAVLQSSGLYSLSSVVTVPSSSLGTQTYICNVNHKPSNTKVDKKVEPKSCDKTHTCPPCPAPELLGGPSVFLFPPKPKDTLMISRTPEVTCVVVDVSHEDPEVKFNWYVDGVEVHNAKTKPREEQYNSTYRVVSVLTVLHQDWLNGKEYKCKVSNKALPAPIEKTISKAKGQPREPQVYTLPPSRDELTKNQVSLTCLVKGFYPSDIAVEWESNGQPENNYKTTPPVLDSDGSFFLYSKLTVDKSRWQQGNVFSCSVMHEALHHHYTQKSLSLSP
light: B2 light

Kd (soluble human FcRn [3]): 150 nM
B6: Fv-4-F1323 (antibody)
heavy: B2 heavy with L237R, S241K, M254Y, S256T, H435D, H436Y, Y438V, R440K
light: B2 light

Kd (soluble human FcRn [2]): 530 nM
B9: Fv-4-F1173 (antibody, human IgG1, kappa)
heavy: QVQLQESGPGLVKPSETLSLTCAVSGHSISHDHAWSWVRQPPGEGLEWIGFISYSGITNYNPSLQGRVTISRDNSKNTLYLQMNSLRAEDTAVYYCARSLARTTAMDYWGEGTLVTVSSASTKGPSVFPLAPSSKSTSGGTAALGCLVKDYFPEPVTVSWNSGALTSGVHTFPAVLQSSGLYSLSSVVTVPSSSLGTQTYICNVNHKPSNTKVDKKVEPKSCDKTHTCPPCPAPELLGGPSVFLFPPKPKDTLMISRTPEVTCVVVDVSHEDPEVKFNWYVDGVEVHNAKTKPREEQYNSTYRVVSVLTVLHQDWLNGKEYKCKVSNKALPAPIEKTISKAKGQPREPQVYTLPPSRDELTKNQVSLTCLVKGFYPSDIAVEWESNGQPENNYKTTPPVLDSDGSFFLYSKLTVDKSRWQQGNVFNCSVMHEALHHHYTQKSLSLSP
light: B2 light

Continued, binder first:

B1: Fv-4-F11 (antibody, human IgG1, kappa)
heavy: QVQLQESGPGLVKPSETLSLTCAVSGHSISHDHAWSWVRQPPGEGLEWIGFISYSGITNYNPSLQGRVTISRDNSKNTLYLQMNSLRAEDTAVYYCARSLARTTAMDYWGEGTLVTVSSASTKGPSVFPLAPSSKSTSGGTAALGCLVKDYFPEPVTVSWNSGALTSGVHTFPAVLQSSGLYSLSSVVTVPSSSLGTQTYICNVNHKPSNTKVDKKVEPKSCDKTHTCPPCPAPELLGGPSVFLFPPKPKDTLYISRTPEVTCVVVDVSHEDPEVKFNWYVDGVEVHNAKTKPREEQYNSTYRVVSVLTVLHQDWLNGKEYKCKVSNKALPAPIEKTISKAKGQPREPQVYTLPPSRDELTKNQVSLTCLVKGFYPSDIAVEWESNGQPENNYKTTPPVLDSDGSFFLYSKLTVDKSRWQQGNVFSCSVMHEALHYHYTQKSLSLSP
light: B2 light
notes: VH3-F11 (M252Y/N434Y) and VL3-CK
Kd [1]: 310 nM

B3: Fv-4-F1340 (antibody)
heavy: B2 heavy with L237R, S241K, M254Y, S256T, T258E, H436Y, Y438V, R440K
light: B2 light
Kd (soluble human FcRn [3]): 56 nM

B5: Fv-4-F890 (antibody, human IgG1, kappa)
heavy: B2 heavy with M254Y, H436Y, Y438V, R440Q, E442S
light: B2 light
notes: M252Y/N434Y/Y436V (EU)
Kd (soluble human FcRn [4]): 107 nM
Kd (soluble human FcRn [5]): 110 nM

B7: Fv-4-F1167 (antibody, human IgG1, kappa)
heavy: B2 heavy with M254Y, S256T, T258E, S426N, H436N, R440Q, E442S
light: B2 light
Kd (soluble human FcRn [2]): 250 nM

B8: Fv-4-F1171 (antibody, human IgG1, kappa)
heavy: B2 heavy with S426N, M430L, H436S, R440Q, E442S
light: B2 light
Kd (soluble human FcRn [2]): 240 nM

B10: Fv-4-F1115 (antibody, human IgG1, kappa)
heavy: B2 heavy with M254Y, S426N, H436Y, Y438V, R440Q, E442S
light: B2 light
Kd (soluble human FcRn [5]): 130 nM

B11: Fv-4-F1166 (antibody)
heavy: B2 heavy with M254Y, S256T, T258E, H436N
light: B2 light
Kd (soluble human FcRn [2]): 210 nM
